What all share (assay): cell-based or functional assay
In assay [1] the target is cynomolgus monkey soluble FLT3L (cynomolgus monkey).
The target of assay [2] is human soluble FLT3L (recombinant huFLT3L) (human) (UniProt P49771).
Assay [3] deals with mouse soluble FLT3L (mouse) (UniProt P49772).
Chain of mouse soluble FLT3L (mouse) (P49772 27-189): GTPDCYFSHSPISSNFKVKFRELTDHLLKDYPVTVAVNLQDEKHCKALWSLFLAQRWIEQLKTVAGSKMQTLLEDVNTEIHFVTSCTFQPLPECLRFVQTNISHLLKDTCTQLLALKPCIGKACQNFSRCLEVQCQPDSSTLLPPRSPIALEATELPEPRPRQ

Chain of human soluble FLT3L (recombinant huFLT3L) (human) (P49771 27-184): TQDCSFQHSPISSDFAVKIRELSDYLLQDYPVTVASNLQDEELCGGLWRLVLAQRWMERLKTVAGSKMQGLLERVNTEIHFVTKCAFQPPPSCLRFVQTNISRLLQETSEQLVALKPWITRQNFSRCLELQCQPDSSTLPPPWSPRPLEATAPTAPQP

“commercially available mouse anti-human FLT3L monoclonal antibody (MAB608, R&D Systems)” returned an IC50 (nM), inhibition of FLT3 downregulation on RS4;11 cells in assay [1] of 0.1 nM. Also, in assay [2], the IC50 (nM) against 0.476 nM FLT3L, ERK phosphorylation in CD133+ stem cells is 0.19 nM; the IC50 (nM) against 0.476 nM FLT3L, MEK phosphorylation in CD133+ stem cells was determined as 0.19 nM; the IC50 (nM), inhibition of FLT3 downregulation on RS4;11 cells stood at 0.04 nM. Further, the IC50 (nM), inhibition of FLT3 downregulation on RS4;11 cells in assay [3] came out at 0.12 nM.

The record behind these values is US20230056815A1.
